Test results: patent US20150132277A1 (Scripps Research, published 2015)
Positions count from the first letter of the chain named. Numbers in names are those of the source.

B1: truncated human KRS (residues 70-584 of full-length lysyl-tRNA synthetase) with C-terminal 6xHis tag (enzyme)
chain: not shown
notes: Homodimer (alpha2) in solution; also called native human KRS (70-584); native KRS
B2: native human KRS (70-584) with T285C mutation (enzyme)
chain: not shown
modifications: disulfide between Cys 285 of the two subunits in the absence of DTT
notes: also called native KRST285C
B3: wild-type (WT) human mini-YRS (N-terminal fragment of human tyrosyl-tRNA synthetase) (enzyme)
chain: MGDAPSPEEKLHLITRNLQEVLGEEKLKEILKERELKIYWGTATTGKPHVAYFVPMSKIADFLKAGCEVTILFADLHAYLDNMKAPWELLELRVSYYENVIKAMLESIGVPLEKLKFIKGTDYQLSKEYTLDVYRLSSVVTQHDSKKAGAEVVKQVEHPLLSGLLYPGLQALDEEYLKVDAQFGGIDQRKIFTFAEKYLPALGYSKRVHLMNPMVPGLTGSKMSSSEEESKIDLLDRKEDVKKKLKKAFCEPGNVENNGVLSFIKHVLFPLKSEFVILRDEKWGGNKTYTAYVDLEKDFAAEVVHPGDLKNSVEVALNKLLDPIREKFNTPALKKLASAAYPDPSKQKPMAKGPAKNSEPEEVI
notes: In monomer-dimer equilibrium; also called WT mini-YRS; mini-tyrosyl tRNA synthetase
B4: F260EY201EI278E T2-WRS variant (stable monomer) (enzyme)
chain: SAKGIDYDKLIVRFGSSKIDKELINRIERATGQRPHHFLRRGIFFSHRDMNQVLDAYENKKPFYLYTGRGPSSEAMHVGHLIPFIFTKWLQDVFNVPLVIQMTDDEKELWKDLTLDQAYSYAVENAKDIIACGFDINKTFIFSDLDYMGMSSGFYKNVVKIQKHVTENQVKGIFGFTDSDCIGKESFPAIQAAPSFSNSFPQIFRDRTDIQCLIPCAIDQDPYFRMTRDVAPRIGYPKPALLHSTFFPALQGAQTKMSASDPNSSIFLTDTAKQIKTKVNKHAFSGGRDTIEEHRQFGGNCDVDVSFMYLTFFLEDDDKLEQIRKDYTSGAMLTGELKKALIEVLQPLIAEHQARRKEVTDEIVKEFMTPRKLSFDFQHHHHHH
notes: Residue numbers of the mutations are those of full-length WRS; also called monomer T2-WRS; T2-WRS (F260EY201EI278E)
B5: VE-Cadherin extracellular domain EC1 (residues 48-155 of full-length VE-Cadherin), tag-free (other)
chain: DWIWNQMHIDEEKNTSLPHHVGKIKSSVSRKNAKYLLKGEYVGKVFRVDAETGDVFAIERLDRENISEYHLTAVIVDKDTGENLETPSSFTIKVHDVNDNWPVFTHRL
notes: Expressed as a GST fusion; also called VE-EC1; VE-Cadherin EC1 domain
B6: human T2-WRS (residues 94-471 of full-length tryptophanyl-tRNA synthetase) with C-terminal His6 tag (enzyme)
chain: B4 chain with E108Y, E167F, E185I
notes: In monomer-dimer equilibrium; also called WT T2-WRS; WT T2-TrpRS
B7: non-associating monomeric Δ159-161 variant of mini-YRS (enzyme)
chain: MGDAPSPEEKLHLITRNLQEVLGEEKLKEILKERELKIYWGTATTGKPHVAYFVPMSKIADFLKAGCEVTILFADLHAYLDNMKAPWELLELRVSYYENVIKAMLESIGVPLEKLKFIKGTDYQLSKEYTLDVYRLSSVVTQHDSKKAGAEVVKQVEHSGLLYPGLQALDEEYLKVDAQFGGIDQRKIFTFAEKYLPALGYSKRVHLMNPMVPGLTGSKMSSSEEESKIDLLDRKEDVKKKLKKAFCEPGNVENNGVLSFIKHVLFPLKSEFVILRDEKWGGNKTYTAYVDLEKDFAAEVVHPGDLKNSVEVALNKLLDPIREKFNTPALKKLASAAYPDPSKQKPMAKGPAKNSEPEEVI
notes: also called the monomer
B8: Flavo-KRS (70-584) with T285C mutation (enzyme)
chain: SVDPNQYYKIRSQAIHQLKVNGEDPYPHKFHVDISLTDFIQKYSHLQPGDHLTDITLKVAGRIHAKRASGGKLIFYDLRGEGVKLQVMANSRNYKSEEEFIHINNKLRRGDIIGVQGNPGKTKKGELSIIPYEITLLSPCLHMLPHLHFGLKDKETRYRQRYLDLILNDFVRQKFIIRSKIITYIRSFLDELGFLEIETPMMNIIPGGAVAKPFICYHNELDMNLYMRIAPELYHKMLVVGNMGLFYGSSTCYTEMAAEKIRDIIGPELVTLHNLKDDSPKLMEQYDVLILGIPTWDFGEIQEDWEAVWDQLDDLNLEGKIVALYGLGDQLGYGEWFLDALGMLHDKLSTKGVKFVGYWPTEGYEFTSPKPVIADGQLFVGLALDETNQYDLSDERIQSWCEQILNEMARVYEIGRQFRNEGIDLTHNPEFTTCEFYMAYADYHDLMEITEKMVSGMVKHITGSYKVTYHPDGPEGQAYDVDFTPPFRRINMVEELEKALGMKLPETNLFETEETRKILDDICVAKAVECPPPRTTARLLDKLVGEFLEVTCINPTFICDHPQIMSPLAKWHRSKEGLTERFELFVMKKEICNAYTELNDPMRQRQLFEEQAKAKAAGDDEAMFIDENFCTALEYGLPPTAGWGMGIDRVAMFLTDSNNIKEVLLFPAMKPEDKKENVATAGHHHHHH
notes: also called T285C Flavo-KRS

Columns and labels:
[1] = target: the molecule itself; experiment: Superdex 200 gel filtration, 0.5-2 µM, self-association
Experimental: E. coli Flavodoxin was inserted at the position of G310 on the peripheral region of the KRS dimer interface. The linker was kept short to reduce the potential structural flexibility. […] All proteins were loaded at a concentration range of 0.5-2 μM. […] BSA is bovine serum albumin.
The peak fractions were analyzed by SDS-PAGE and visualized by Coomassie blue staining.

[2] = target: the molecule itself; experiment: disulfide crosslinking across the dimer interface, SDS-PAGE with and without DTT
Experimental: All proteins were expressed and purified as mentioned above, except that no beta-mercaptoethanol was added. The purified proteins were diluted to 1 mg/ml in 25 mM HEPES (pH7.5, 150 mM NaCl) and incubated for 15 minutes at 4° C. with or without 10 mM DTT (dithiothreitol). Proteins samples (10 μl) were mixed with an equal amount of 2× loading buffer (without reducing reagent) and boiled for 1 min before loading onto a SDS-PAGE gel.

[3] = target: the molecule itself; experiment: gel chromatography; dimer-monomer equilibrium, reference Δ159-161 mini-YRS
Experimental: (§1) Each protein sample (200 μl of 20 μM) was injected to Superdex 200 chromatography column (GE Healthcare, 10/300GL) in PBS containing 5 mM β-mercaptoethanol. The column was then calibrated by standard proteins. […] To determine the dissociation constant for dimer-monomer equilibrium, gel chromatography was carried out as a function of protein concentration.

[4] = target: the molecule itself; experiment: gel chromatography with immunoblotting of fractions (YRS polyclonal antibody); dimer-monomer equilibrium
Experimental: as §1

[5] = target: B5; experiment: SPR (Biacore), T2-WRS variant amine-coupled to CM5 chip, EC1 domain in flow, 0.1 mM ZnCl2, kinetic titration fitting; monomer F260EY201EI278E T2-WRS on the chip, EC1 in flow
[6] = target: B6; experiment: SPR (Biacore), T2-WRS amine-coupled to CM5 chip, EC1 domain in flow, 0.1 mM ZnCl2, kinetic titration fitting; WT T2-WRS on the chip, EC1 in flow
[7] = target: the molecule itself; experiment: size exclusion chromatography, 100 nM to 10 uM; percentage of dimers against concentration; dimer-monomer dissociation constant
[8] = target: the molecule itself; experiment: size exclusion chromatography, percent dimer plotted against protein concentration; dimer-monomer dissociation constant
[9] = target: the molecule itself; experiment: gel filtration chromatography as a function of protein concentration; dimer-monomer equilibrium
Experimental: as §1

B1
binding result [1]: binds

B2
binding result [2]: binds

B3
fold lower dimer-monomer dissociation constant than Δ159-161 [3]: ~1000 fold
Kd [4]: ~100 nM

B4
Kd [5]: 1340 nM

B5
Kd [6]: 1520 nM

B6
Kd [7]: 437 nM
Kd [8]: 472 nM

B7
Kd [9]: ~100000 nM

B8
binding result [2]: no binding
